Non-standard residues stand in square brackets, D forms with d. No end group written: not given here.
These binders were tested against Anti-Müllerian hormone Receptor 2 (AMH-R2), protein target applied to the peptide microarray (UniProt Q16671) (assay: peptide microarray; protein target detected by anti-GST and Alexa Fluor 647 antibody, scanned signal).
UniProt Q16671, sequence (Q16671 18-149 limits assumed): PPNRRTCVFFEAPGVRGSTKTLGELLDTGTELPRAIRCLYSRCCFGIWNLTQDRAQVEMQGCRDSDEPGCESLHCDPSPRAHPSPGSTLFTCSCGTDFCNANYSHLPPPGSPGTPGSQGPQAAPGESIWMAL

DG[dL]GSV[dL]A[dR][dK]N[dR][dR]D[dA]V[dL] [AMH receptor binding peptide SEQ ID NO: 5] and Y[dW]G[dW]SHA[dK][dA]NQFPN[dR][dL][dA] [AMH receptor binding peptide SEQ ID NO: 3] are the same in Average: 65500 for the first, 65500 for the second.

Going from [dR][dW]G[dA]SN[dK]HFAN[dA]NQ[dR][dA][dL] [NegAMHR2BP (SEQ ID NO: 4)] to [dK]GSNA[dR][dK]N[dR][dR]D[dA]SGV[dA][dL] [AMH receptor binding peptide SEQ ID NO: 20], the Average falls from 65500 to 47900.

Going from G[dL]Y[dW]SAYNP[dW][dR]HV[dA][dL][dA]S [AMH receptor binding peptide SEQ ID NO: 18] to G[dL]Q[dW]SFANGQ[dW][dR]G[dA][dL]SG [AMH receptor binding peptide SEQ ID NO: 12], the Average rises from 59200 to 63800.

Going from EG[dL]QSSAYNNY[dW][dR][dK][dL]V[dA] [AMH receptor binding peptide SEQ ID NO: 17] to GG[dR]SVSAN[dL]Q[dR]E[dR][dK]V[dA]G [AMH receptor binding peptide SEQ ID NO: 19], the Average falls from 61200 to 56900.

Binder NG[dR]SQAHN[dL][dR][dK][dA]GV[dA][dL]S [AMH receptor binding peptide SEQ ID NO: 15] has an Average of 61500.

First: DG[dL]GSV[dL]A[dR][dK]N[dR][dR]D[dA]V[dL] [AMH receptor binding peptide SEQ ID NO: 5]
Second: Y[dW]G[dW]SHA[dK][dA]NQFPN[dR][dL][dA] [AMH receptor binding peptide SEQ ID NO: 3]
The Rep 1 of the first is lower: 65400 for the first, 65500 for the second.

Going from [dR][dW]G[dA]SN[dK]HFAN[dA]NQ[dR][dA][dL] [NegAMHR2BP (SEQ ID NO: 4)] to [dK]GSNA[dR][dK]N[dR][dR]D[dA]SGV[dA][dL] [AMH receptor binding peptide SEQ ID NO: 20], the Rep 1 falls from 65500 to 52300.

Going from G[dL]Y[dW]SAYNP[dW][dR]HV[dA][dL][dA]S [AMH receptor binding peptide SEQ ID NO: 18] to G[dL]Q[dW]SFANGQ[dW][dR]G[dA][dL]SG [AMH receptor binding peptide SEQ ID NO: 12], the Rep 1 rises from 60800 to 64600.

Compared with EG[dL]QSSAYNNY[dW][dR][dK][dL]V[dA] [AMH receptor binding peptide SEQ ID NO: 17], GG[dR]SVSAN[dL]Q[dR]E[dR][dK]V[dA]G [AMH receptor binding peptide SEQ ID NO: 19] is lower in Rep 1: 60200 for the first, 55700 for the second.

NG[dR]SQAHN[dL][dR][dK][dA]GV[dA][dL]S [AMH receptor binding peptide SEQ ID NO: 15] showed a Rep 1 of 62900.

DG[dL]GSV[dL]A[dR][dK]N[dR][dR]D[dA]V[dL] [AMH receptor binding peptide SEQ ID NO: 5] and Y[dW]G[dW]SHA[dK][dA]NQFPN[dR][dL][dA] [AMH receptor binding peptide SEQ ID NO: 3] are the same in Rep 2: 65500 for the first, 65500 for the second.

First: [dR][dW]G[dA]SN[dK]HFAN[dA]NQ[dR][dA][dL] [NegAMHR2BP (SEQ ID NO: 4)]
Second: [dK]GSNA[dR][dK]N[dR][dR]D[dA]SGV[dA][dL] [AMH receptor binding peptide SEQ ID NO: 20]
The Rep 2 of the first is higher: 65400 for the first, 43500 for the second.

First: G[dL]Y[dW]SAYNP[dW][dR]HV[dA][dL][dA]S [AMH receptor binding peptide SEQ ID NO: 18]
Second: G[dL]Q[dW]SFANGQ[dW][dR]G[dA][dL]SG [AMH receptor binding peptide SEQ ID NO: 12]
The Rep 2 of the first is lower: 57500 for the first, 62900 for the second.

First: EG[dL]QSSAYNNY[dW][dR][dK][dL]V[dA] [AMH receptor binding peptide SEQ ID NO: 17]
Second: GG[dR]SVSAN[dL]Q[dR]E[dR][dK]V[dA]G [AMH receptor binding peptide SEQ ID NO: 19]
The Rep 2 of the first is higher: 62200 for the first, 58100 for the second.

Work on NG[dR]SQAHN[dL][dR][dK][dA]GV[dA][dL]S [AMH receptor binding peptide SEQ ID NO: 15] yielded a Rep 2 of 60000.

Reference: US20260274975A1
